Here are results for 1 molecule from publication PMC3919598.

This assay has as its target MUS81-EME1 complex (human) (UniProt Q96NY9).
Sequence of UniProt Q96NY9 (Q96NY9 whole entry, chain 1 of 2): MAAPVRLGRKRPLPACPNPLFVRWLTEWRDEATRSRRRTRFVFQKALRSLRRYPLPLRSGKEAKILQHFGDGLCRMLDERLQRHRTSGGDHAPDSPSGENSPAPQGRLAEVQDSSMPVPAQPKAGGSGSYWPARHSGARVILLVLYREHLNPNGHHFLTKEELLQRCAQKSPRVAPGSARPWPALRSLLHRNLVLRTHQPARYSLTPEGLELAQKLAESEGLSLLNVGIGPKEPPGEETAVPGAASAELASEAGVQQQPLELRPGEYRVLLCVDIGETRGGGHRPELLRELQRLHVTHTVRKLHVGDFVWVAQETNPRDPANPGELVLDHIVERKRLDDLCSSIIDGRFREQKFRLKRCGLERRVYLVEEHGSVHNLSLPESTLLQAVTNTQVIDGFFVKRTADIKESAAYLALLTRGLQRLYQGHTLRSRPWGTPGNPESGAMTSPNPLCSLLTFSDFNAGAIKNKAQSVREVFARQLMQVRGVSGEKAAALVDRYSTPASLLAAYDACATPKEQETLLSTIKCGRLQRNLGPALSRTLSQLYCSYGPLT
Sequence of UniProt Q96NY9 (Q96AY2 whole entry, chain 2 of 2, further chain): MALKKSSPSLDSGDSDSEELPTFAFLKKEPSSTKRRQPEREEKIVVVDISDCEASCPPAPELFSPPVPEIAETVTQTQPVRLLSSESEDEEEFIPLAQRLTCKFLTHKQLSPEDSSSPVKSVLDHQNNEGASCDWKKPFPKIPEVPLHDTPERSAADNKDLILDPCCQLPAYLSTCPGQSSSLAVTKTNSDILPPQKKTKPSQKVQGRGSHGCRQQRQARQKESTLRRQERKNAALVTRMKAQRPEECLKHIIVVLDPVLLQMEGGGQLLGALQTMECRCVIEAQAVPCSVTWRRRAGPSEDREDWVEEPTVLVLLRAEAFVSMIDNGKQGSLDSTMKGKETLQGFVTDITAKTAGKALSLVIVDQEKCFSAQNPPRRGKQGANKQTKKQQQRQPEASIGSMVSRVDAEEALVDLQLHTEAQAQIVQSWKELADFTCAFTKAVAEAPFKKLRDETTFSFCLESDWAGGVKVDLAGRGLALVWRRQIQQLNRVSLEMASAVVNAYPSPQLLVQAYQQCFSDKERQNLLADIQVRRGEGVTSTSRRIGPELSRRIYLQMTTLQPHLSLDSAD

B1: Fanconi anemia complementation group A protein (FANCA) (natural protein)
chain: MSDSWVPNSASGQDPGGRRRAWAELLAGRVKREKYNPERAQKLKESAVRLLRSHQDLNALLLEVEGPLCKKLSLSKVIDCDSSEAYANHSSSFIGSALQDQASRLGVPVGILSAGMVASSVGQICTAPAETSHPVLLTVEQRKKLSSLLEFAQYLLAHSMFSRLSFCQELWKIQSSLLLEAVWHLHVQGIVSLQELLESHPDMHAVGSWLFRNLCCLCEQMEASCQHADVARAMLSDFVQMFVLRGFQKNSDLRRTVEPEKMPQVTVDVLQRMLIFALDALAAGVQEESSTHKIVRCWFGVFSGHTLGSVISTDPLKRFFSHTLTQILTHSPVLKASDAVQMQREWSFARTHPLLTSLYRRLFVMLSAEELVGHLQEVLETQEVHWQRVLSFVSALVVCFPEAQQLLEDWVARLMAQAFESCQLDSMVTAFLVVRQAALEGPSAFLSYADWFKASFGSTRGYHGCSKKALVFLFTFLSELVPFESPRYLQVHILHPPLVPGKYRSLLTDYISLAKTRLADLKVSIENMGLYEDLSSAGDITEPHSQALQDVEKAIMVFEHTGNIPVTVMEASIFRRPYYVSHFLPALLTPRVLPKVPDSRVAFIESLKRADKIPPSLYSTYCQACSAAEEKPEDAALGVRAEPNSAEEPLGQLTAALGELRASMTDPSQRDVISAQVAVISERLRAVLGHNEDDSSVEISKIQLSINTPRLEPREHMAVDLLLTSFCQNLMAASSVAPPERQGPWAALFVRTMCGRVLPAVLTRLCQLLRHQGPSLSAPHVLGLAALAVHLGESRSALPEVDVGPPAPGAGLPVPALFDSLLTCRTRDSLFFCLKFCTAAISYSLCKFSSQSRDTLCSCLSPGLIKKFQFLMFRLFSEARQPLSEEDVASLSWRPLHLPSADWQRAALSLWTHRTFREVLKEEDVHLTYQDWLHLELEIQPEADALSDTERQDFHQWAIHEHFLPESSASGGCDGDLQAACTILVNALMDFHQSSRSYDHSENSDLVFGGRTGNEDIISRLQEMVADLELQQDLIVPLGHTPSQEHFLFEIFRRRLQALTSGWSVAASLQRQRELLMYKRILLRLPSSVLCGSSFQAEQPITARCEQFFHLVNSEMRNFCSHGGALTQDITAHFFRGLLNACLRSRDPSLMVDFILAKCQTKCPLILTSALVWWPSLEPVLLCRWRRHCQSPLPRELQKLQEGRQFASDFLSPEAASPAPNPDWLSAAALHFAIQQVREENIRKQLKKLDCEREELLVFLFFFSLMGLLSSHLTSNSTTDLPKAFHVCAAILECLEKRKISWLALFQLTESDLRLGRLLLRVAPDQHTRLLPFAFYSLLSYFHEDAAIREEAFLHVAVDMYLKLVQLFVAGDTSTVSPPAGRSLELKGQGNPVELITKARLFLLQLIPRCPKKSFSHVAELLADRGDCDPEVSAALQSRQQAAPDADLSQEPHLF
With B1, the MUS81-EME1-mediated incision of psoralen ICL-damaged 3' ssDNA branch substrate (1.5 nM MUS81-EME1; FANCA 0-20 nM), fold stimulation came to 14 fold; the MUS81-EME1-mediated incision of undamaged DNA (1.5 nM MUS81-EME1; FANCA 0-20 nM): enhanced up to 5 nM FANCA (Phase I), inhibited from 10 to 20 nM and abrogated at 20 nM FANCA (Phase II) amounted to 3 fold.
